Target: T1, Arabidopsis thaliana 14-3-3 kappa (Arabidopsis thaliana), P48348
T1 chain: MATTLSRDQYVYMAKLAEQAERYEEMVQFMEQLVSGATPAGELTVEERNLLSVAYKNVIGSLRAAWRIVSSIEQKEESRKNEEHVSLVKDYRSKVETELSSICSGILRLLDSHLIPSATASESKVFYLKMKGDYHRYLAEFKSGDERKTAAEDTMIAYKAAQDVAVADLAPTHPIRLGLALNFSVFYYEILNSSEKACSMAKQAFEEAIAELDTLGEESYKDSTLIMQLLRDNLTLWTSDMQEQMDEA
Assay: SEC-MALS
Settings: remark: other sources report otherwise

- stoichiometry N: 2
B1: Arabidopsis thaliana 14-3-3 kappa, P48348 1-248 (natural protein)
chain: T1 chain

From publication doi:10.1101/2024.07.02.601760
